Target: α2-antiplasmin

B1: endogenous plasmin of mouse brain slices (protein)
chain: VYLSECKTGIGNGYRGTMSRTKSGVACQKWGATFPHVPNYSPSTHPNEGLEENYCRNPDNDEQGPWCYTTDPDKRYDYCNIPECEEECMYCSGEKYEGKISKTMSGLDCQAWDSQSPHAHGYIPAKFPSKNLKMNYCRNPDGEPRPWCFTTDPTKRWEYCDIPRCTTPPPPPSPTYQCLKGRGENYRGTVSVTVSGKTCQRWSEQTPHRHNRTPENFPCKNLEENYCRNPDGETAPWCYTTDSQLRWEYCEIPSCESSASPDQSDSSVPPEEQTPVVQECYQSDGQSYRGTSSTTITGKKCQSWAAMFPHRHSKTPENFPDAGLEMNYCRNPDGDKGPWCYTTDPSVRWEYCNLKRCSETGGSVVELPTVSQEPSGPSDSETDCMYGNGKDYRGKTAVTAAGTPCQGWAAQEPHRHSIFTPQTNPRAGLEKNYCRNPDGDVNGPWCYTTNPRKLYDYCDIPLCASASSFECGKPQVEPKKCPGRVVGGCVANPHSWPWQISLRTRFTGQHFCGGTLIAPEWVLTAAHCLEKSSRPEFYKVILGAHEEYIRGLDVQEISVAKLILEPNNRDIALLKLSRPATITDKVIPACLPSPNYMVADRTICYITGWGETQGTFGAGRLKEAQLPVIENKVCNRVEYLNNRVKSTELCAGQLAGGVDSCQGDSGGPLVCFEKDKYILQGVTSWGLGCARPNKPGVYVRVSRFVDWIEREMRNN
For B1, which “plasmin activity in brain slices (D-VLK chromogenic plasmin substrate assay)” value is on record?
Its value is “addition of the plasmin inhibitor α2-antiplasmin (Bajou et al., 2008) inhibited this activity”.

Source: US20160194639
